Measured values taken from the supplement of paper PMC7877785.
± gives the uncertainty stated by the source.

Experiment: self-splicing fitness, log relative to wild type (ln ratio); higher = more splicing; Tetrahymena group I intron in knt gene, E. coli kanamycin selection, DiMSum; sequences stand for … in CUCUCU…GGAGGGAAAAGUUAUCAGGCAUGCACCUGGUAGCUAGUCUUUAAACCAAUAGAUUGCAUCGGUUUAAAAGGCAAGACCGUCAAAUUGCGGGAAAGGGGUCAACAGCCGUUCAGUACCAAGUCUCAGGGGAAACUUUGAGAUGGCCUUGCAAAGGGUAUGGUAAUAAGCUGACGGACAUGGUCCUAACCACGCAGCCAAGUCCUAAGUCAACAGAUCUUCUGUUGAUAUGGAUGCAGUUCACAGACUAAAUGUCGGUCGGGGAAGAUGUAUUCUUCUCAUAAGAUAUAGUCGGACCUCUCCUUAAUGGGAGCUAGCGGAUGAAGUGAUGCAACACUGGAGCCGCUGGGAACUAAUUUGUAUGCGAAAGUAUAUUGAUUAGUUUUGGAGUACUCGUGGUCG
How it was run: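 Six replicate transformations of E. coli BL21(DE3) with a pET-22b(+) library were grown overnight at 37°C or 30°C. The library randomised all eight P1ex-region intron nucleotides, the intron lying in the knt kanamycin-resistance gene, and plates were LB agar with or without 25 μg/mL kanamycin plus 100 μg/mL carbenicillin, 50 μM IPTG and 0.2% rhamnose. Pooled colonies were amplicon-sequenced on an Illumina HiSeq 2500, and fitness is the DiMSum error-weighted combination of wild-type-normalised replicate fold changes, kanamycin versus none.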

Row | Sequence | self-splicing fitness (ln) (30 °C) | self-splicing fitness (ln) (37 °C)
1 | UGCGAGCAAUAUUACGCAGA | -3.13 ± 0.37 | -1.84 ± 0.38
2 | GAACAGCAAUAUUACGCGAU | -2.87 ± 0.13 | -2.27 ± 0.14
3 | ACCGAGCAAUAUUACGAACU | -2.13 ± 0.13 | -0.803 ± 0.14
4 | GCACAGCAAUAUUACGUGGA | -0.386 ± 0.064 | -0.281 ± 0.065
5 | CCUGAGCAAUAUUACGCGAU | -3.71 ± 0.18 | -2.25 ± 0.14
6 | GGUCAGCAAUAUUACGGAUA | -0.579 ± 0.086 | 0.248 ± 0.11
7 | UAAGAGCAAUAUUACGCUUA | -3.19 ± 0.32 | -2.63 ± 0.35
8 | GGACAGCAAUAUUACGCAGU | -4.28 ± 0.36 | -1.5 ± 0.24
9 | UGGCAGCAAUAUUACGACCA | -0.399 ± 0.2 | -0.654 ± 0.2
10 | GACUAGCAAUAUUACGUGUG | -1.12 ± 0.055 | -0.793 ± 0.073
11 | ACGCAGCAAUAUUACGCGCU | -2.24 ± 0.17 | -1.31 ± 0.14
12 | CAGAAGCAAUAUUACGAGAC | -1.15 ± 0.3 | -1.38 ± 0.28
13 | AACUAGCAAUAUUACGGUUG | -1.36 ± 0.1 | -0.299 ± 0.11
14 | GAUAAGCAAUAUUACGCUCA | -1 ± 0.07 | 0.0635 ± 0.097
15 | UCGUAGCAAUAUUACGCCGA | -0.812 ± 0.31 | -2.03 ± 0.27
16 | CGCCAGCAAUAUUACGAAGU | -3.65 ± 0.16 | -2.13 ± 0.11
17 | ACUAAGCAAUAUUACGCCGU | -1.86 ± 0.2 | -1.64 ± 0.18
18 | UGCCAGCAAUAUUACGCGGU | -2.55 ± 0.3 | -2.45 ± 0.25
19 | CUGUAGCAAUAUUACGUGCU | -2.94 ± 0.24 | -2.39 ± 0.33

Row | Sequence | self-splicing fitness (ln) (30 °C) | self-splicing fitness (ln) (37 °C)
20 | CGAAAGCAAUAUUACGGCCU | -1.32 ± 0.068 | -0.274 ± 0.082
21 | AUUAAGCAAUAUUACGCGUG | -0.804 ± 0.067 | -0.697 ± 0.081
22 | GUUCAGCAAUAUUACGCAAU | -1.08 ± 0.16 | -0.106 ± 0.19
23 | GUACAGCAAUAUUACGGGCU | -3.98 ± 0.3 | -2.1 ± 0.21
24 | UUCAAGCAAUAUUACGACUG | -2.38 ± 0.15 | -1.33 ± 0.12
25 | GCCCAGCAAUAUUACGGGGG | -3.34 ± 0.11 | -2.78 ± 0.15
26 | AUCAAGCAAUAUUACGGGGU | -3.94 ± 0.2 | -2.48 ± 0.15
27 | AUGAAGCAAUAUUACGUGCG | -0.65 ± 0.08 | 0.532 ± 0.11
28 | GCGCAGCAAUAUUACGCUAU | -0.914 ± 0.096 | -0.406 ± 0.12
29 | CGAUAGCAAUAUUACGCUUA | -2.23 ± 0.12 | -1.19 ± 0.078
30 | GUGUAGCAAUAUUACGAAAU | -1.47 ± 0.1 | -1.1 ± 0.14
31 | UAUUAGCAAUAUUACGGCGC | -1.74 ± 0.13 | -0.453 ± 0.17
32 | AGAAAGCAAUAUUACGCGUU | -2.71 ± 0.16 | -2.34 ± 0.17
33 | AGGGAGCAAUAUUACGUUAG | -3.02 ± 0.2 | -3.66 ± 0.37
34 | GCCCAGCAAUAUUACGAUUG | -2.63 ± 0.14 | -2.57 ± 0.22
35 | ACGUAGCAAUAUUACGAUGU | -2.37 ± 0.14 | -1.6 ± 0.17
36 | UGAAAGCAAUAUUACGGUGG | -1.22 ± 0.063 | -1.44 ± 0.093
37 | GUACAGCAAUAUUACGUUAG | -2.37 ± 0.15 | -1.74 ± 0.17
